The values that follow come from patent US20210301021A1 (NANJING GENSCRIPT BIOTECH, published 2021).

What is called Kd is the concentration at which binding is half-saturated. Broadly, the koff is the first-order rate constant of dissociation. A higher koff goes with a short-lived complex. A word on the kon: it is the rate constant with which the complex forms.

Assay [1] has as its target T1, human CTLA4-Fc recombinant protein (human, UniProt P16410 36-161).
T1 construct: not shown: Fc part
T1 sequence (looked up): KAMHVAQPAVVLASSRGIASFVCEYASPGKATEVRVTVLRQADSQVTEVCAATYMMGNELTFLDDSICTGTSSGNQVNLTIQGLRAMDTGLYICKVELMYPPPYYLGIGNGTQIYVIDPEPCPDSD
Description: kinetics of the prokaryotic expression product, analyte CTLA4/Fc, 1:1 binding model.

Assay [2] concerns the target T2, CTLA4/His (human, UniProt P16410 36-161).
T2 construct: not shown: His tag
T2 sequence (looked up): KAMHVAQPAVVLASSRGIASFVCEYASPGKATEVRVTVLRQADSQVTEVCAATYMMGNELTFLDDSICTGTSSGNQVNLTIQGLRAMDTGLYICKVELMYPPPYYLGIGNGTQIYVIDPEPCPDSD
Description: SPR (Biacore), after AAPH oxidation, analyte CTLA4/His.

Assay [3] has as its target T2, CTLA4/His. Description: SPR, Biacore 8K, antibody captured on the chip, antigen as analyte, 1:1 binding model. For orientation: In SPR one partner is held on a chip, and binding of the other changes the refractive index at the surface.
Assay [4] has as its target T2, CTLA4/His. Description: SPR (Biacore), untreated control of the oxidation pressure test, analyte CTLA4/His.
The target in assay [5] is T3, CTLA-4 on the functional cells of the Promega anti-CTLA-4 blocking assay kit (UniProt P16410 36-223, limits assumed).
T3 sequence (looked up): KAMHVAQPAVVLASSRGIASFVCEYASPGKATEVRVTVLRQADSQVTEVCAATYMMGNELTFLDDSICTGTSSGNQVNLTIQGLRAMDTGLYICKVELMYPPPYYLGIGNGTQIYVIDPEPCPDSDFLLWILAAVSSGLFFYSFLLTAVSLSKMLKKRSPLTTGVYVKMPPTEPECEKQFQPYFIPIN
Kind of assay: cell-based or functional assay.

Where only a bound is given, the exact number is not on record here.

B1: AH01672 (prokaryotic expression antibody product, CBM library) (Fab, V domains shown)
VH: QVQLVQSGAEVKKPGASVKVSCKASGYTFTSYWINWVKQAPGQGLEWMGRIAPGSGTTYYNEMFTGRVTMTRDTSTSTAYMELSSLRSEDTAVYYCARGDYFDYWDQGTMVTVSS
VL: DIQLTQSPSFLSASVGDRVTITCSASKSVSYIHWYQQKPGKAPKLLIYDTSTLASGVPPRFSGSGSGPEFSLTISSLQPEDFATYYCQQRTTYPLTFGGGTKLEIK
notes: Prokaryotic expression product from Phage-Fab / FASEBA-Fab plasmids
As for B1, in assay [1], the Kd is 14.5 pM.

B2: AH01695 AAPH (AH01695 after the oxidation pressure test) (antibody, V domains shown)
VH: QVQLVQSGAEVKKPGASVKVSCKASGYTFTSYWINWVRQAPGQGLEWMGRIAPGSGTTYYNEMFTGRVTLTRDTSTSTAYIELSSLRSEDTAVYFCAIGDYFDYWGQGTMVTVSS
VL: DIQLTQSPSFLSASVGDRVTITCSASKSVSYIHWYQQKPGKAPKLLIYDTSTLASGVPSRFSGSGSGTEFTLTISSLQPEDFATYYCQQRTTYPLTFGQGTKLEIK
modifications: Met 63 oxidised in 70.898% of the sample; Met 250 (constant region of the heavy chain) oxidised in 26.143% (AAPH, 40 C, 24 h)
notes: Human IgG1/kappa, treated with AAPH; also called AH01695 AAPH-24 h
Turning to B2, in the assay with CTLA4/His [2], binding was characterised by a dissociation constant (Kd) of 131 pM, the koff is 8.75e-05 s⁻¹ and the kon was 670000 M⁻¹ s⁻¹.

B3: AH01653 (prokaryotic expression antibody product, CBM library) (Fab, V domains shown)
VH: QVHLVQSGAEVKKPGASVKVSCKASGYTFTSYWINWVKQAPGQGLEWMGRIAPGSGTTYYNEMFTGRVTMTRDTSTSTAYMELSSLRSEDTAVYYCARGDYFDYWDQGTMVTVSS
VL: DIQLTQSPSFLSASVGDRVTITCSASKSVSYIHWYQQKPGKAPKLLIYDTSTLASGVPSRFSGSGSGPEYTLTISSLQPEDFATYYCQQRTTYPLTFGGGTKLEIK
On to B3, for which the Kd in assay [1] worked out at 14.9 pM.

B4: AH01695 humanized anti-human CTLA4 monoclonal antibody (human IgG1/kappa) (antibody, V domains shown)
VH: QVQLVQSGAEVKKPGASVKVSCKASGYTFTSYWINWVRQAPGQGLEWMGRIAPGSGTTYYNEMFTGRVTLTRDTSTSTAYIELSSLRSEDTAVYFCAIGDYFDYWGQGTMVTVSS
VL: DIQLTQSPSFLSASVGDRVTITCSASKSVSYIHWYQQKPGKAPKLLIYDTSTLASGVPSRFSGSGSGTEFTLTISSLQPEDFATYYCQQRTTYPLTFGQGTKLEIK
notes: also called AH1695
In the assay with CTLA4/His [3], B4 showed a Kd not above 15.3 pM, a koff not above 1e-05 s⁻¹ and a kon of 655000 M⁻¹ s⁻¹. Further, in the assay with CTLA4/His [4], the Kd is 59.4 pM, the koff was determined as 4.55e-05 s⁻¹ and the kon is 767000 M⁻¹ s⁻¹. In assay [5], the “EC50 (µg/ml), luciferase reporter, Promega anti-CTLA-4 blocking assay (CD80/CD86 aAPC/Raji cells with functional cells expressing CTLA-4)” value amounted to 5.46 µg/mL.

B5: AH01686 (prokaryotic expression antibody product, 5BM library) (Fab, V domains shown)
VH: QVQLVQSGAEVVKPGASVKVSCKASGYTFTSYWINWIKQAPGQGLEWIGRIAPGSGTTYYNEMFTGRVTLTRDTSTSTAYIELSSLRSEDTAVYFCARGDYFDYWGQGTMVTVSS
VL: DIQLTQSPSFLSASVGDRVTITCSASKSVSYIHWYQQKPGKAPKLLIYDTSTLASGVPSRFSGSGSGTEFTLTISSLQPEDFATYYCQQRTTYPLTFGQGTKLEIK
notes: as for B1
B5: the Kd in assay [1] was 0.0433 pM.

B6: AH01686 humanized anti-human CTLA4 monoclonal antibody (human IgG1/kappa) (antibody, V domains shown)
VH: QVQLVQSGAEVVKPGASVKVSCKASGYTFTSYWINWIKQAPGQGLEWIGRIAPGSGTTYYNEMFTGRVTLTRDTSTSTAYIELSSLRSEDTAVYFCARGDYFDYWGQGTMVTVSS
VL: DIQLTQSPSFLSASVGDRVTITCSASKSVSYIHWYQQKPGKAPKLLIYDTSTLASGVPSRFSGSGSGTEFTLTISSLQPEDFATYYCQQRTTYPLTFGQGTKLEIK
In the assay with CTLA4/His [3], B6 came in with a Kd of 38.8 pM, a koff of 3.18e-05 s⁻¹ and a kon of 820000 M⁻¹ s⁻¹.

B7: AH01695 (prokaryotic expression antibody product, 5BM library) (Fab, V domains shown)
VH: QVQLVQSGAEVKKPGASVKVSCKASGYTFTSYWINWVRQAPGQGLEWMGRIAPGSGTTYYNEMFTGRVTLTRDTSTSTAYIELSSLRSEDTAVYFCAIGDYFDYWGQGTMVTVSS
VL: DIQLTQSPSFLSASVGDRVTITCSASKSVSYIHWYQQKPGKAPKLLIYDTSTLASGVPSRFSGSGSGTEFTLTISSLQPEDFATYYCQQRTTYPLTFGQGTKLEIK
notes: as for B1
Turning to B7, in assay [1], the Kd was determined as 0.0106 pM.

B8: AH01679 humanized anti-human CTLA4 monoclonal antibody (human IgG1/kappa) (antibody, V domains shown)
VH: QVQLVQSGAEVVKPGASVKLSCKASGYTFTSYWINWVRQAPGQGLEWIGRIAPGSGTTYYNEMFTGRVTMTRDTSTSTVYMELSSLRSEDTAVYYCARGDYFDYWGQGTMVTVSS
VL: DIQLTQSPSFLSASVGDRVTITCSASKSVSYIHWYQQKPGKAPKLLIYDTSTLASGVPSRFSGSGSGTEFTLTISSLQPEDFATYYCQQRTTYPLTFGQGTKLEIK
notes: also called AH1679
In the assay with CTLA4/His [3], B8 came in with a Kd not above 13.4 pM, a koff not above 1e-05 s⁻¹ and a kon of 748000 M⁻¹ s⁻¹. For the same molecule, the “EC50 (µg/ml), luciferase reporter, Promega anti-CTLA-4 blocking assay (CD80/CD86 aAPC/Raji cells with functional cells expressing CTLA-4)” value in assay [5] is 17.1 µg/mL.

B9: AH01704 humanized anti-human CTLA4 monoclonal antibody (human IgG1/kappa) (antibody, V domains shown)
VH: QVQLVQSGAEVVKPGASVKVSCKASGYTFTSYWINWVKQAPGQGLEWMGRIAPGSGTTYYNEMFTGRVTLTRDTSTSTAYMELSSLRSEDTAVYFCARGDYFDYWGQGTMVTVSS
VL: DIQLTQSPSFLSASVGDRVTITCSASKSVSYIHWYQQKPGKAPKLLIYDTSTLASGVPSRFSGSGSGTEYTLTISSLQPEDFATYYCQQRTTYPLTFGQGTKLEIK
Turning to B9, in the assay with CTLA4/His [3], binding was characterised by a dissociation constant (Kd) of 14.4 pM, the koff turned out to be 1.12e-05 s⁻¹ and the kon stood at 780000 M⁻¹ s⁻¹.
